According to patent publication US20120114652A1 (AbbVie / Abbott, published 2012):

Tests used:
[1] = target: T1, rabbit PAI-1 (rabbit); assay: IgG competition ELISA (DELFIA) against biotinylated human PAI-1, one-site binding analysis; column Rabbit
T1 chain: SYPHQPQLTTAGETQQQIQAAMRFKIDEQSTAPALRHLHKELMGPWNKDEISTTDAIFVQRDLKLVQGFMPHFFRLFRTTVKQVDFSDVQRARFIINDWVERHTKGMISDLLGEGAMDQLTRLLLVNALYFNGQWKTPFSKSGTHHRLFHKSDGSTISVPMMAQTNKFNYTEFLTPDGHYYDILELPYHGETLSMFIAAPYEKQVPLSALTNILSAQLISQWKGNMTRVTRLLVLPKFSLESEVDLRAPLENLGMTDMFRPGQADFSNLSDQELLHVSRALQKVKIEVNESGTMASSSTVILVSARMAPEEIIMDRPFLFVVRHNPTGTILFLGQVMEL

[2] = target: T2, mouse PAI-1 (mouse, UniProt P22777 24-401); assay: IgG competition ELISA (DELFIA) against biotinylated human PAI-1, one-site binding analysis; column Mouse
T2 construct: bought (US Biological); also called murine PAI-1
T2 sequence: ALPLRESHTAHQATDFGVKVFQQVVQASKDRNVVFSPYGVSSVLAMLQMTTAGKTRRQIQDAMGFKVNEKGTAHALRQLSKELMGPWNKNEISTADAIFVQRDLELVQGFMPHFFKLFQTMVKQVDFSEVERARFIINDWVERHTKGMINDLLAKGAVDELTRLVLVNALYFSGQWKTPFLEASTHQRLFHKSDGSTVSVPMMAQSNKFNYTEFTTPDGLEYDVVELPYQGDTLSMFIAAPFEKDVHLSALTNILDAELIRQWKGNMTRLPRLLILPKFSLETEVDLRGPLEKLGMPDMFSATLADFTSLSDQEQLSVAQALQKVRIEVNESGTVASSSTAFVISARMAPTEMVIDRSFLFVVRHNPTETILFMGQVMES

[3] = target: T3, latent human PAI-1 (human, UniProt P05121 24-402); assay: IgG competition ELISA (DELFIA) against biotinylated human PAI-1, one-site binding analysis; column Human latent
T3 construct: also called latent PAI-1

fold difference in observed binding KD compared to human wild-type active [1]: 41.5 fold | fold difference in observed binding KD compared to human wild-type active [2]: 47 fold | fold difference in observed binding KD compared to human wild-type active [3]: 8.5 fold
B1: PICK167_A01 IgG1 (antibody, V domains shown)
VH: QVQLQQSGAEVKKPGSSVKVSCKASGGTFSSYAISWVRQAPGQRLEWMGGIIPTFGTANYAQKFQGRVTITADESTSTAYMELSGLRSEDTAVYYCARERRQWLEGHFDYWGRGTPVTVSS
VL: DIQMTQSPSFLSASIGDRVTITCRASEGIYHNLAWYQQKPGKAPKLLIYKASSLASGAPSRFSGSRSGTDFTLTISSLQPDDFATYYCQQYSNYPLTFGGGTKLEIKR
